Publication PMC8892091 (The Journal of Biological Chemistry, 2022)

What was measured:
His-tag labeled ALKBH6 = His-tag labeled ALKBH6 (human, UniProt Q3KRA9 1-238, fluorescent label on the His-tag (His-tag labeling kit RED-tris-NTA)); assay: MST
crystal structure = target: the molecule itself; assay: crystal structure

Row | fold higher binding affinity than ALKBH6 itself (His-tag labeled ALKBH6) [fold] | Binder | binding result (crystal structure)
1 | 3.5 | ZMYND11 peptide (V71 to K151) (domain or fragment, human, UniProt Q15326 71-151, looked up) VGCKGSKAGIEQEGYWLPGDEIDWETENHDWYCFECHLPGEVLICDLCFRVYHSKCLSDEFRLRDSSSPWQCPVCRSIKKK | 
2 |  | ALKBH6 (crystallised, ALKBH6∙Mn2+∙α-KG; holo-ALKBH6) (enzyme, human, UniProt Q3KRA9 1-238, looked up) MEEQDARVPALEPFRVEQAPPVIYYVPDFISKEEEEYLLRQVFNAPKPKWTQLSGRKLQNWGGLPHPRGMVPERLPPWLQRYVDKVSNLSLFGGLPANHVLVNQYLPGEGIMPHEDGPLYYPTVSTISLGSHTVLDFYEPRRPEDDDPTEQPRPPPRPTTSLLLEPRSLLVLRGPAYTRLLHGIAAARVDALDAASSPPNAAACPSARPGACLVRGTRVSLTIRRVPRVLRAGLLLGK | binds
